Data taken from publication PMC9285634.

Target: Pyruvate kinase M2 (PKM2), endogenous (human (endogenous in HeLa and HCT116)) (UniProt P14618)
Assay: cross-linking; cell or tumor tissue lysate in PBS with 0.1% Triton X-100; 4 ug protein crosslinked with 0.025% glutaraldehyde for 2 min at 37 C, stopped with Tris-HCl pH 8.0 50 mM; SDS-PAGE and WB with anti-PKM2; cells with HITT overexpression or KD, HITT fragments, miR-106, FBP; HCT116 xenografts

Sequence of Pyruvate kinase M2 (PKM2), endogenous, P14618 1-531 (enzyme; other documents disagree on this pair) (P14618 whole entry): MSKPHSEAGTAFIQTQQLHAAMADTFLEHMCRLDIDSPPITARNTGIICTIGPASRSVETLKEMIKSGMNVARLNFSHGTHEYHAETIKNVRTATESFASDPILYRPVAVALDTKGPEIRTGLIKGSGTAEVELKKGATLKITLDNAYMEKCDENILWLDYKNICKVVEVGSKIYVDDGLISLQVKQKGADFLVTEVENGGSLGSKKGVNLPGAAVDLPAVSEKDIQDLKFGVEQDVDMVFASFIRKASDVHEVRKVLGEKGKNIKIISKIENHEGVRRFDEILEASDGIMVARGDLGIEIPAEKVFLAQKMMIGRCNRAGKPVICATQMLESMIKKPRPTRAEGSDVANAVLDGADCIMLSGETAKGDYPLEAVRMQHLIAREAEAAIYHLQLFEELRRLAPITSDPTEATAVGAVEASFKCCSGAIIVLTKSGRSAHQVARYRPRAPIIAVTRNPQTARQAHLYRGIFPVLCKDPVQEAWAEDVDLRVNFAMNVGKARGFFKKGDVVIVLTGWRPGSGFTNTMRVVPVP

Substance: Pyruvate kinase M2 (PKM2), endogenous, P14618 1-531 (enzyme; other documents disagree on this pair)
- stoichiometry N: 2
